Assay results: publication PMC3471852

Target: β-arrestin-2 (UniProt P32121)
Experiment: anti-HA co-IP after DSS cross-linking, anti-Flag blot
Conditions: reference: wild type C3aR

Row | binding against the reference (sites S459,T463,S465,T466,S470,S475,S479,T480,T481) | other: percent decrease vs wild type (sites T463,S465,T466,S470) [%] | Substance
1 | lost |  | C3a receptor (C3aR) (from UniProt Q16581) MT7 (S459A plus MT1 and MT2 substitutions)
2 |  | 74 | C3a receptor (C3aR) (from UniProt Q16581) MT2 (T463A/S465A/T466A/S470A)
